Target: replication protein A (RPA) heterotrimer (UniProt P27694)

B1: N-HelQ, N-terminal HelQ fragment (amino acids 1-240) (domain or fragment)
chain: MDECGSRIRRRVSLPKRNRPSLGCIFGAPTAAELVPGDEGKEEEEMVAENRRRKTAGVLPVEVQPLLLSDSPECLVLGGGDTNPDLLRHMPTDRGVGDQPNDSEVDMFGDYDSFTENSFIAQVDDLEQKYMQLPEHKKHATDFATENLCSESIKNKLSITTIGNLTELQTDKHTENQSGYEGVTIEPGADLLYDVPSSQAIYFENLQNSSNDLGDHSMKERDWKSSSHNTVNEELPHNCI
- free, unbound DNA liberated from pre-bound RPA (12.5 nM)–fork-2 DNA complex in EMSAs on incremental addition of N-HelQ (0–500 nM): 40%
